What was measured:
EGFR-L858R = molecular target: T1, EGFR-L858R (Homo sapiens, UniProt P00533, L858R); assay: MaMTH EGFR-interactor screen, lentiviral preys against EGFR-L858R bait (interaction score); format: cell-based; details: MaMTH interaction score of prey with EGFR-L858R bait
T1 construct: with the advantage of testing full-length integral membrane proteins; (GGGGS)2 linker-Cub (human ubiquitin aa 35-76)-GAL4(1-147)-mNFkB(364-550) (C); expressed in transfected cells
Method: (§1) After lentivirus harvest, target cells (stable 5×GAL4UAS-luciferase reporter-HEK293T cells) were infected at a multiplicity of infection (MOI) of around 0.3-0.4 to ensure single copy integration per cell. Cells were selected in puromycin for at least 48 h and transfected with either EGFR-wildtype or EGFR-L858R baits in triplicates. 24 h after transfection, cells were lysed and luciferase assays performed. On each set of interaction assays, various negative controls were included. To calculate a MaMTH-interaction scores, negative controls were averaged and the fold-change of luciferase activity compared to the averaged controls was calculated and defined as the interaction score.
(§2) Each set of experiments contains a defined set of negative controls in at least three replicates. Negative controls were chosen as such that there is a range of controls showing high-background luciferase activity (normally cytosolic proteins: Fabp5, Pex19) as well as medium-background luciferase activity (membrane-bound interactors: Pex7, GABBR2). Negative controls were averaged and the fold-change of luciferase activity was calculated. Using this method, we have a stringent cut-off and chose an interaction score >1 to be interacting proteins.
(§3) Our cut-off of 1 is based on fold-change difference in luciferase activity over averaged negative controls. Negative controls include cytosolic preys (which tend to promiscuously bind to many proteins), plasma membrane- and peroxisomal-prey proteins. In general, we chose stringent conditions by testing preys that tend to have high luciferase background with any bait tested, in order to generate high-confidence interaction data. […] Phosphorylated tyrosine residues on the receptor are typically docking sites for downstream cytoplasmic targets and recognized through SH2 or PTB domains^43.

EGFR-Wt [1] = molecular target: T2, EGFR-Wt (Homo sapiens, UniProt P00533); assay: MaMTH EGFR-interactor screen, lentiviral preys against EGFR-wildtype bait (interaction score); format: cell-based; details: MaMTH interaction score of prey with EGFR-Wt bait, mean
T2 construct: with the advantage of testing full-length integral membrane proteins; (GGGGS)2 linker-Cub (human ubiquitin aa 35-76)-GAL4(1-147)-mNFkB(364-550) (C); expressed in transfected cells
Method: as §1, §2, §3

EGFR-Wt [2] = assay: as above; format: cell-based, human; details: ratio of EGFR-Wt mean to EGFR-L858R mean interaction score
Method: as §1, §2, §3

B1: CSK (protein, UniProt P41240 2-450, looked up)
Tyrosine-protein kinase CSK: SAIQAAWPSGTECIAKYNFHGTAEQDLPFCKGDVLTIVAVTKDPNWYKAKNKVGREGIIPANYVQKREGVKAGTKLSLMPWFHGKITREQAERLLYPPETGLFLVRESTNYPGDYTLCVSCDGKVEHYRIMYHASKLSIDEEVYFENLMQLVEHYTSDADGLCTRLIKPKVMEGTVAAQDEFYRSGWALNMKELKLLQTIGKGEFGDVMLGDYRGNKVAVKCIKNDATAQAFLAEASVMTQLRHSNLVQLLGVIVEEKGGLYIVTEYMAKGSLVDYLRSRGRSVLGGDCLLKFSLDVCEAMEYLEGNNFVHRDLAARNVLVSEDNVAKVSDFGLTKEASSTQDTGKLPVKWTAPEALREKKFSTKSDVWSFGILLWEIYSFGRVPYPRIPLKDVVPRVEKGYKMDAPDGCPPAVYEVMKNCWHLDAAMRPSFLQLREQLEHIKTHELHL
Question: How did the EGFR-L858R mean (EGFR-L858R) turn out when B1 was run?
Answer: 5.86

Question: What about the EGFR-Wt mean (EGFR-Wt [1]) of the same molecule?
Answer: 8.40

Question: And the Wt/L858R (EGFR-Wt [2])?
Answer: 1.43

B2: CTTN (protein, UniProt Q14247 1-550, looked up)
Src substrate cortactin: MWKASAGHAVSIAQDDAGADDWETDPDFVNDVSEKEQRWGAKTVQGSGHQEHINIHKLRENVFQEHQTLKEKELETGPKASHGYGGKFGVEQDRMDKSAVGHEYQSKLSKHCSQVDSVRGFGGKFGVQMDRVDQSAVGFEYQGKTEKHASQKDYSSGFGGKYGVQADRVDKSAVGFDYQGKTEKHESQRDYSKGFGGKYGIDKDKVDKSAVGFEYQGKTEKHESQKDYVKGFGGKFGVQTDRQDKCALGWDHQEKLQLHESQKDYKTGFGGKFGVQSERQDSAAVGFDYKEKLAKHESQQDYSKGFGGKYGVQKDRMDKNASTFEDVTQVSSAYQKTVPVEAVTSKTSNIRANFENLAKEKEQEDRRKAEAERAQRMAKERQEQEEARRKLEEQARAKTQTPPVSPAPQPTEERLPSSPVYEDAASFKAELSYRGPVSGTEPEPVYSMEAADYREASSQQGLAYATEAVYESAEAPGHYPAEDSTYDEYENDLGITAVALYDYQAAGDDEISFDPDDIITNIEMIDDGWWRGVCKGRYGLFPANYVELRQ
Question: With B2 as the molecule, how does the EGFR-L858R mean (EGFR-L858R) read?
Answer: 22.11

Question: And the EGFR-Wt mean (EGFR-Wt [1])?
Answer: 33.81

Question: What about the Wt/L858R (EGFR-Wt [2]) of the same molecule?
Answer: 1.53

B3: STAM (protein, UniProt Q92783 2-540, looked up)
Signal transducing adapter …: PLFATNPFDQDVEKATSEMNTAEDWGLILDICDKVGQSRTGPKDCLRSIMRRVNHKDPHVAMQALTLLGACVSNCGKIFHLEVCSRDFASEVSNVLNKGHPKVCEKLKALMVEWTDEFKNDPQLSLISAMIKNLKEQGVTFPAIGSQAAEQAKASPALVAKDPGTVANKKEEEDLAKAIELSLKEQRQQSTTLSTLYPSTSSLLTNHQHEGRKVRAIYDFEAAEDNELTFKAGEIITVLDDSDPNWWKGETHQGIGLFPSNFVTADLTAEPEMIKTEKKTVQFSDDVQVETIEPEPEPAFIDEDKMDQLLQMLQSTDPSDDQPDLPELLHLEAMCHQMGPLIDEKLEDIDRKHSELSELNVKVMEALSLYTKLMNEDPMYSMYAKLQNQPYYMQSSGVSGSQVYAGPPPSGAYLVAGNAQMSHLQSYSLPPEQLSSLSQAVVPPSANPALPSQQTQAAYPNTMVSSVQGNTYPSQAPVYSPPPAATAAAATADVTLYQNAGPNMPQVPNYNLTSSTLPQPGGSQQPPQPQQPYSQKALL
Question: Which EGFR-L858R mean (EGFR-L858R) does the source give for B3 here?
Answer: 2.49

Question: And the EGFR-Wt mean (EGFR-Wt [1])?
Answer: 0.56

Question: And the Wt/L858R (EGFR-Wt [2])?
Answer: 0.23

B4: LAT (protein, UniProt O43561 1-262, looked up)
Linker for activation of …: MEEAILVPCVLGLLLLPILAMLMALCVHCHRLPGSYDSTSSDSLYPRGIQFKRPHTVAPWPPAYPPVTSYPPLSQPDLLPIPRSPQPLGGSHRTPSSRRDSDGANSVASYENEGASGIRGAQAGWGVWGPSWTRLTPVSLPPEPACEDADEDEDDYHNPGYLVVLPDSTPATSTAAPSAPALSTPGIRDSAFSMESIDDYVNVPESGESAEASLDGSREYVNVSQELHPGAAKTEPAALSSQEAEEVEEEGAPDYENLQELN
Question: For B4, which EGFR-L858R mean (EGFR-L858R) is on record?
Answer: 18.39

Question: And the EGFR-Wt mean (EGFR-Wt [1])?
Answer: 29.54

Question: And the Wt/L858R (EGFR-Wt [2])?
Answer: 1.61

B5: CTNNA1 (protein, UniProt P35221 2-906, looked up)
Catenin alpha-1: TAVHAGNINFKWDPKSLEIRTLAVERLLEPLVTQVTTLVNTNSKGPSNKKRGRSKKAHVLAASVEQATENFLEKGDKIAKESQFLKEELVAAVEDVRKQGDLMKAAAGEFADDPCSSVKRGNMVRAARALLSAVTRLLILADMADVYKLLVQLKVVEDGILKLRNAGNEQDLGIQYKALKPEVDKLNIMAAKRQQELKDVGHRDQMAAARGILQKNVPILYTASQACLQHPDVAAYKANRDLIYKQLQQAVTGISNAAQATASDDASQHQGGGGGELAYALNNFDKQIIVDPLSFSEERFRPSLEERLESIISGAALMADSSCTRDDRRERIVAECNAVRQALQDLLSEYMGNAGRKERSDALNSAIDKMTKKTRDLRRQLRKAVMDHVSDSFLETNVPLLVLIEAAKNGNEKEVKEYAQVFREHANKLIEVANLACSISNNEEGVKLVRMSASQLEALCPQVINAALALAAKPQSKLAQENMDLFKEQWEKQVRVLTDAVDDITSIDDFLAVSENHILEDVNKCVIALQEKDVDGLDRTAGAIRGRAARVIHVVTSEMDNYEPGVYTEKVLEATKLLSNTVMPRFTEQVEAAVEALSSDPAQPMDENEFIDASRLVYDGIRDIRKAVLMIRTPEELDDSDFETEDFDVRSRTSVQTEDDQLIAGQSARAIMAQLPQEQKAKIAEQVASFQEEKSKLDAEVSKWDDSGNDIIVLAKQMCMIMMEMTDFTRGKGPLKNTSDVISAAKKIAEAGSRMDKLGRTIADHCPDSACKQDLLAYLQRIALYCHQLNICSKVKAEVQNLGGELVVSGVDSAMSLIQAAKNLMNAVVQTVKASYVASTKYQKSQGMASLNLPAVSWKMKAPEKKPLVKREKQDETQTKIKRASQKKHVNPVQALSEFKAMDSI
Question: Which EGFR-L858R mean (EGFR-L858R) does the source give for B5 here?
Answer: 1.34

Question: And the EGFR-Wt mean (EGFR-Wt [1])?
Answer: 2.11

Question: What about the Wt/L858R (EGFR-Wt [2]) of the same molecule?
Answer: 1.58

B6: TNK2 (protein, UniProt Q07912 1-1038, looked up)
Activated CDC42 kinase 1: MQPEEGTGWLLELLSEVQLQQYFLRLRDDLNVTRLSHFEYVKNEDLEKIGMGRPGQRRLWEAVKRRKALCKRKSWMSKVFSGKRLEAEFPPHHSQSTFRKTSPAPGGPAGEGPLQSLTCLIGEKDLRLLEKLGDGSFGVVRRGEWDAPSGKTVSVAVKCLKPDVLSQPEAMDDFIREVNAMHSLDHRNLIRLYGVVLTPPMKMVTELAPLGSLLDRLRKHQGHFLLGTLSRYAVQVAEGMGYLESKRFIHRDLAARNLLLATRDLVKIGDFGLMRALPQNDDHYVMQEHRKVPFAWCAPESLKTRTFSHASDTWMFGVTLWEMFTYGQEPWIGLNGSQILHKIDKEGERLPRPEDCPQDIYNVMVQCWAHKPEDRPTFVALRDFLLEAQPTDMRALQDFEEPDKLHIQMNDVITVIEGRAENYWWRGQNTRTLCVGPFPRNVVTSVAGLSAQDISQPLQNSFIHTGHGDSDPRHCWGFPDRIDELYLGNPMDPPDLLSVELSTSRPPQHLGGVKKPTYDPVSEDQDPLSSDFKRLGLRKPGLPRGLWLAKPSARVPGTKASRGSGAEVTLIDFGEEPVVPALRPCAPSLAQLAMDACSLLDETPPQSPTRALPRPLHPTPVVDWDARPLPPPPAYDDVAQDEDDFEICSINSTLVGAGVPAGPSQGQTNYAFVPEQARPPPPLEDNLFLPPQGGGKPPSSAQTAEIFQALQQECMRQLQAPAGSPAPSPSPGGDDKPQVPPRVPIPPRPTRPHVQLSPAPPGEEETSQWPGPASPPRVPPREPLSPQGSRTPSPLVPPGSSPLPPRLSSSPGKTMPTTQSFASDPKYATPQVIQAPGPRAGPCILPIVRDGKKVSSTHYYLLPERPSYLERYQRFLREAQSPEEPTPLPVPLLLPPPSTPAPAAPTATVRPMPQAALDPKANFSTNNSNPGARPPPPRATARLPQRGCPGDGPEAGRPADKIQMAMVHGVTTEECQAALQCHGWSVQRAAQYLKVEQLFGLGLRPRGECHKVLEMFDWNLEQAGCHLLGSWGPAHHKR
Question: Which EGFR-L858R mean (EGFR-L858R) does the source give for B6 here?
Answer: 1.30

Question: And the EGFR-Wt mean (EGFR-Wt [1])?
Answer: 1.51

Question: What about the Wt/L858R (EGFR-Wt [2]) of the same molecule?
Answer: 1.16

B7: RIN1 (protein, UniProt Q13671 1-783, looked up)
Ras and Rab interactor 1: MESPGESGAGSPGAPSPSSFTTGHLAREKPAQDPLYDVPNASGGQAGGPQRPGRVVSLRERLLLTRPVWLQLQANAAAALHMLRTEPPGTFLVRKSNTRQCQALCMRLPEASGPSFVSSHYILESPGGVSLEGSELMFPDLVQLICAYCHTRDILLLPLQLPRAIHHAATHKELEAISHLGIEFWSSSLNIKAQRGPAGGPVLPQLKARSPQELDQGTGAALCFFNPLFPGDLGPTKREKFKRSFKVRVSTETSSPLSPPAVPPPPVPVLPGAVPSQTERLPPCQLLRRESSVGYRVPAGSGPSLPPMPSLQEVDCGSPSSSEEEGVPGSRGSPATSPHLGRRRPLLRSMSAAFCSLLAPERQVGRAAAALMQDRHTAAGQLVQDLLTQVRAGPEPQELQGIRQALSRARAMLSAELGPEKLLSPKRLEHVLEKSLHCSVLKPLRPILAARLRRRLAADGSLGRLAEGLRLARAQGPGAFGSHLSLPSPVELEQVRQKLLQLLRTYSPSAQVKRLLQACKLLYMALRTQEGEGAGADEFLPLLSLVLAHCDLPELLLEAEYMSELLEPSLLTGEGGYYLTSLSASLALLSGLGQAHTLPLSPVQELRRSLSLWEQRRLPATHCFQHLLRVAYQDPSSGCTSKTLAVPPEASIATLNQLCATKFRVTQPNTFGLFLYKEQGYHRLPPGALAHRLPTTGYLVYRRAEWPETQGAVTEEEGSGQSEARSRGEEQGCQGDGDAGVKASPRDIREQSETTAEGGQGQAQEGPAQPGEPEAEGSRAAEE
Question: With B7 as the molecule, how does the EGFR-L858R mean (EGFR-L858R) read?
Answer: 1.84

Question: What about the EGFR-Wt mean (EGFR-Wt [1]) of the same molecule?
Answer: 2.19

Question: What about the Wt/L858R (EGFR-Wt [2]) of the same molecule?
Answer: 1.19
